# Source: patent US6111081A, “Lactoferrin variants and uses thereof” (Baylor College of Medicine, priority 1997, dated 2000)
# B1: recombinant lactoferrin: purified wild-type recombinant human lactoferrin expressed in Aspergillus awamori (protein, UniProt P02788 20-710, looked up)
# Lactotransferrin: GRRRSVQWCAVSQPEATKCFQWQRNMRKVRGPPVSCIKRDSPIQCIQAIAENRADAVTLDGGFIYEAGLAPYKLRPVAAEVYGTERQPRTHYYAVAVVKKGGSFQLNELQGLKSCHTGLRRTAGWNVPIGTLRPFLNWTGPPEPIEAAVARFFSASCVPGADKGQFPNLCRLCAGTGENKCAFSSQEPYFSYSGAFKCLRDGAGDVAFIRESTVFEDLSDEAERDEYELLCPDNTRKPVDKFKDCHLARVPSHAVVARSVNGKEDAIWNLLRQAQEKFGKDKSPKFQLFGSPSGQKDLLFKDSAIGFSRVPPRIDSGLYLGSGYFTAIQNLRKSEEEVAARRARVVWCAVGEQELRKCNQWSGLSEGSVTCSSASTTEDCIALVLKGEADAMSLDGGYVYTAGKCGLVPVLAENYKSQQSSDPDPNCVDRPVEGYLAVAVVRRSDTSLTWNSVKGKKSCHTAVDRTAGWNIPMGLLFNQTGSCKFDEYFSQSCAPGSDPRSNLCALCIGDEQGENKCVPNSNERYYGYTGAFRCLAENAGDVAFVKDVTVLQNTDGNNNEAWAKDLKLADFALLCLDGKRKPVTEARSCHLAMAPNHAVVSRMDKVERLKQVLLHQQAKFGRNGSDCPDKFCLFQSETKNLLFNDNTECLARLHGKTTYEKYLGPQYVAGITNLKKCSTSPLLEACEFLRK
# Test: pH-dependent release of 59Fe (dialysis, liquid scintillation counting)
# Type: physicochemical
# Conditions: 59Fe-saturated protein dialyzed against buffers pH 7-2, 48 hours, 4° C.; FIG. 4
# Experimental: FIG. 4 depicts pH-dependent release of ^59 Fe from the lactoferrin amino-terminal (MN-2Y) and carboxy-terminal (MC-2Y) iron binding defective variants. ^59 Fe-saturated recombinant human lactoferrin (Rec hLF), MN-2Y and MC-2Y were dialyzed against buffers ranging in pH from 7-2. ^59 Fe remaining bound to the lactoferrin samples after dialysis was quantified by liquid scintillation counting and the Fe/protein molar ratio was determined. The data are represented as means ±S.E.M.
# MN-2Y, MC-2Y and MNC-4Y (5 mg) were incubated with a four-fold excess of FeCl3 :^59 FeCl3 :NTA (400:1:8). Ward et al., 1995, Biotechnology 13:498-503. The samples were incubated at room temperature for 30 minutes. The samples were purified through NAP-10 column (Pharmacia, Piscataway, N.J.) followed by dialysis against 0.05 M Tris/HCl, 0.2 M NaCl, pH 7.0 for 12 hours to remove any non-specific iron bound to the lactoferrin variants. Iron bound to the lactoferrin variants after dialysis was quantified by liquid scintillation counting. The pH stability of iron binding for each of the lactoferrin variants was carried out as described previously. […]
# The lactoferrin variants were saturated with ^59 FeCl3 and dialyzed against buffers ranging in pH from 7-2 for 48 hours at 4° C. The amount of iron remaining bound to the lactoferrin variants was quantified by liquid scintillation counting. […]
molecule,measurement,value
B1,pH at which iron release begins,5.0
same,pH at which iron release is completed,2.0
